What all share (assay): SEC
For experiment [1], the target named is CdaA_(88-273) S222A (Leptospira interrogans str. Fiocruz L1-130).
The target of experiment [2] is CdaA_(88-273) R203A (Leptospira interrogans str. Fiocruz L1-130).
Experiment [3] deals with CdaA_(88-273) D172A (Leptospira interrogans str. Fiocruz L1-130).

Drawing on article doi:10.1101/2025.04.15.648992, this text covers stoichiometry N for 3 substances.

What is called stoichiometry N is the number of molecules, sites or subunits per partner or assembly. “CdaA_(88-273) S222A (domain or fragment)” yielded a stoichiometry N in experiment [1] of 2. Take “CdaA_(88-273) R203A (domain or fragment)”: in experiment [2], the stoichiometry N was 2. With “CdaA_(88-273) D172A (domain or fragment)”, the stoichiometry N in experiment [3] stood at 2.
